Measured values as given in publication PMC3883222.
Read-outs that look alike come from different tables or passages of the source.

Columns and labels:
Assay in all cases: single-molecule fluorescence in zero-mode waveguides
[1] = target: Escherichia coli 70S ribosome (Cy3B-30S and BHQ-50S subunits) on biotinylated 6(FK) mRNA (E. coli) (UniProt P0AG67)
[2] = target: Escherichia coli 70S ribosome (Cy3B-30S and BHQ-50S subunits) on biotinylated 6(FK) mRNA (E. coli) (UniProt P0AG67); remark: listed apart in the source
[3] = target: Escherichia coli 70S ribosome (Cy3B-30S and BHQ-50S subunits) on biotinylated 6(FK) mRNA (E. coli) (UniProt P0AG67); remark: listed apart in the source

arrival time against that of EF-G-GDPNP [1]: 150 % longer
bound-state lifetime [1]: 332 ms
dwell time [2]: 192 ms
arrival time against that of EF-G-GDPNP [3]: 150 % longer
bound-state lifetime [3]: 191 ms
dwell time [3]: 1.64 s
dwell time (events with counter-rotation) [3]: 122 ms
dwell time (sampling of the non-rotated state) [3]: 64.2 ms
dwell time (sampling of the rotated state, no conformational change) [3]: 75.8 ms
dwell time after the counter-rotation [3]: 10 ms
dwell time with fusidic acid [3]: 8.4 s
koff [3]: 13.2 s⁻¹
mean dwell time with spectinomycin (sampling of the rotated state) [3]: 351 ms
mean dwell time with spectinomycin (successful translocation events) [3]: 326 ms
mean lifetime of the complex [3]: 1.62 s
Substance: Cy5-labeled single-cysteine elongation factor G (EF-G S73C on a cysteine-free background) (from UniProt P0A6M8 1-704) (enzyme)
